These results are taken from the RNAGym collection of RNA variant scans (doi:10.7554/elife.90254).

To fix the notation:
B1: LINE1-full (parent)
chain: UACGUAGGUGGUUUUCCCCUGAUAGUGCUAAGGGGGCCUGGAAGUUUGGACUGGGCAGAGCUCAACACAGCGUGGCAAAGUGGCUGUGGCUAGACUGCCUCUCUGGAUUCCUCGUCACUCAGCAGGGCAUCUCUGAGAGAAAUGCC

This data set covers variants of B1. The data set can be described thus: self-cleavage, relative activity (ratio to wild type); higher = more cleavage; in vitro, sequencing; the parent is a self-cleaving ribozyme.
On to A42U U119C, for which the self-cleavage came to 1.73. The same measure for A43C C99U: 0.98; for U45A A59U: 0.6; for U45A A59G: 0.05. The figure for U45A A59C is 1.01; for A43G U73C it is 1.3. The figure for A43G U73A is 1.53; for U45A A141U it is 1.01.

With A43G U91C, the self-cleavage worked out at 0.37. Regarding A42U U132A, the self-cleavage was 1.02.

Take U45A A65G: the self-cleavage was determined as 0.07.

Turning to A42U U62C, the self-cleavage is 0.04. The same measure for A43U A94U: 0.24; for U45C A50G: 1. The figure for U45C A50U is 1.02. A43U A57G: the self-cleavage was 0.89. The same measure for U45C A94U: 0.33; for A43U C110U: 0.83; for A43C A136U: 1.64.

In the case of A43U A64U, the self-cleavage turned out to be 0.43. In the case of A43G U108C, the self-cleavage was determined as 1.56.

As to A42U G72U, the self-cleavage worked out at 0.62.

G44A U96C: the self-cleavage is 0.13. On to A43G G93A, for which the self-cleavage came to 0.1. The figure for A43C U100A is 1.41; for A43G G97A it is 0.04.

For the variant A43U A121U, the self-cleavage was determined as 0.79. For U45A C63A, the self-cleavage was found to be 0.05. The same measure for A42G G125A: 1.25; for A43U U91C: 0.68; for A43G A69C: 0.13. The figure for A42G U119A is 0.95. As to A43U U96C, the self-cleavage is 0.1. The figure for U45A C99U is 0.59; for U45C C51U it is 1.58. The same measure for U45C C51A: 0.2; for A43G C116U: 1.22; for A43G A136G: 1.5. The same measure for A43G A136C: 1.18; for A43G A136U: 1.5.

Consider A43G G75A, for which the self-cleavage came to 1.06. A43G U85A: the self-cleavage turned out to be 0.1. The figure for A43G U85G is 0.15. The same measure for A43G U85C: 0.2; for U45C A67G: 1.08; for A43G U100C: 1.65. The same measure for A42U U102G: 0.09; for A42U U102C: 0.89. Turning to A43G A67U, the self-cleavage was found to be 0.06. The figure for A43U U130A is 1.67; for A43U U130C it is 2.34; for A43U U81C it is 1.26. The same measure for A42G U81C: 1.55; for A42G U81A: 2.11; for A42U A43G: 1.51. As to A42U A43U, the self-cleavage turned out to be 0.84. The same measure for A43U A124G: 0.71. The same measure for U45C A136U: 1.49. The same measure for U45C A136G: 1.5; for G44A A140G: 1.34; for A42U U104C: 1.76. On to A43G C128U, for which the self-cleavage stood at 0.79. On to U45A A124U, for which the self-cleavage was 1.39. The same measure for A43G U112C: 1.2. The same measure for A43G U112A: 1.4; for A43G A77G: 2.07; for A42U A69C: 0.02. The same measure for U45C C56A: 0.06; for U45C C56U: 0.12; for A43U A140C: 1.58.

With A43U A140U, the self-cleavage is 1.49. The same measure for A43U A140G: 1.02. Consider A43G U52A, for which the self-cleavage turned out to be 1.43. With A43G U52C, the self-cleavage was 1.13.

Take A43G A57U: the self-cleavage is 0.21. The figure for A43G A57G is 0.78; for A43G A57C it is 0.09; for A43U A107U it is 1.81. In the case of A43G C99U, the self-cleavage came out at 1.1. The same measure for A42U A141U: 0.81; for U45C A78U: 1.43.

With A42G U96A, the self-cleavage came out at 0.03. The same measure for A43U A77U: 1.02; for U45C C66U: 0.04. As for A43G C146U, the self-cleavage came to 1.69. The same measure for A43G G48U: 1.28; for A43U A65G: 0.02; for A43U C116U: 1.12. The same measure for A42G G127A: 1.04; for A43G U45C: 1.1; for A43G A64G: 0.32. For A43G A64U, the self-cleavage was found to be 0.4. The same measure for A43U C131A: 1.64; for U45C C99U: 1.07; for U45C C76U: 1.89. The figure for A42U A121C is 2.42; for A42U A94G it is 0.24. The figure for A42U A94U is 0.15. Consider U45A U85C, for which the self-cleavage turned out to be 0.24.

In the case of A43G U104G, the self-cleavage was 1.78. The same measure for A43G U104C: 1.68; for A43G U46C: 0.53; for U45C A107U: 1.34. With A43G G122A, the self-cleavage amounted to 0.19. The same measure for G44C A64G: 0.24; for U45A U109C: 1.4; for A43C G97A: 0.09.

Turning to A42G G80A, the self-cleavage amounted to 2.61.

Take A43G U119C: the self-cleavage worked out at 1.51. The figure for A43U U45C is 0.87. The figure for A42G G114A is 1.48. The same measure for U45C A77U: 1.29; for U45C A77C: 1.15; for A43U U132A: 1.15. As to A42U U45C, the self-cleavage came to 1.4. For the variant A43U U104A, the self-cleavage turned out to be 0.98. Turning to A43G C118U, the self-cleavage was 1.19. The figure for G44C U91C is 0.14; for U45A U112A it is 1.21.

With A42G U47A, the self-cleavage came to 1.19. The same measure for A43U A141C: 2.43; for A43G C120U: 1.52; for G44U U130A: 1.99. The same measure for U45A U47C: 1.45; for U45A U47A: 1.17.

Regarding A42G U52A, the self-cleavage was found to be 1.52. As to A42G U52C, the self-cleavage stood at 1.17. As to U45C A140U, the self-cleavage amounted to 1.05. On to A43G A59U, for which the self-cleavage worked out at 0.82. For the variant U45A U100C, the self-cleavage came to 1.05. On to U45C A65G, for which the self-cleavage stood at 0.04. Turning to U45C A65U, the self-cleavage is 0.22. The figure for U45A A92C is 0.14; for G44A U91C it is 0.65. As to U45A U96C, the self-cleavage amounted to 0.13. The same measure for G44A U134G: 1.02; for U45A U104C: 1.77. The same measure for A43U U62C: 0.06; for U45C A129U: 1.03. With U45C A129G, the self-cleavage worked out at 1.4.

On to U45A A67U, for which the self-cleavage is 0.09. The figure for U45C A141U is 1.79. The same measure for A43G U109C: 1.92.

A43G U109A: the self-cleavage came to 1.46. Take A43U U87A: the self-cleavage stood at 0.03.

Turning to G44A U46C, the self-cleavage amounted to 1.06. Regarding A43G U81C, the self-cleavage amounted to 1.32.

Consider A42U A107G, for which the self-cleavage stood at 1.25. Turning to A43C C113A, the self-cleavage was found to be 1.1. The same measure for U45C A64U: 0.29; for A43G U62C: 0.1; for U45A U119A: 1.44. The figure for U45A U119C is 1.47; for U45C C84A it is 0.09; for U45C C84U it is 0.04. The same measure for A43C U81A: 1.77; for A43G G80A: 1.48; for A42G U104G: 0.8. Turning to U45C C68U, the self-cleavage came to 0.16.

In the case of A43G A78U, the self-cleavage is 1.86. The same measure for A43G A78G: 1.2. The same measure for U45A U87C: 0.24. The same measure for U45A U130C: 1.86. Turning to A43U U115C, the self-cleavage came to 1.21. The figure for A43U A142G is 1.24; for U45A A50G it is 0.95; for A43C A138G it is 1.02.
